Data: patent US20220267379A1, “NOVEL INHIBITORS OF […] AND USES THEREOF” (Ecole Polytechnique Federale de Lausanne (EPFL), priority 2019, published 2022)
Positions of bridges follow the written chain, without caps; N, C: chain ends. Non-standard residues stand in square brackets, D forms with d. Chains are numbered I, II in the order given. No end group written: not given here. *: point of attachment. Palmitoyl = CCCCCCCCCCCCCCCC(=O)*; hArg = N=C(N)NCCCC[C@H](N)C(=O)O; Nle = CCCC[C@H](N)C(=O)O

Experiments:
[1] = biological target: T1, human Kallikrein-related peptidase 7 (hKLK7) (human), P49862; experiment: enzyme inhibition; 1,3-dibromoacetone linker; settings: modification not given
Target sequence in this assay (P49862 30-253): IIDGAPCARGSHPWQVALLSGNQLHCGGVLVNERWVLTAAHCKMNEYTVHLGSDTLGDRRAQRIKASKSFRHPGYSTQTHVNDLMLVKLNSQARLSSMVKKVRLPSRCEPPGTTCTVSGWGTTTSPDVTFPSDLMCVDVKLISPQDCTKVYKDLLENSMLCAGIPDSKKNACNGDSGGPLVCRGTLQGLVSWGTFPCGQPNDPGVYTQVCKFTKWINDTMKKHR

[2] = biological target: T1, human Kallikrein-related peptidase 7 …; experiment: enzyme inhibition; pyridine linker; settings: modification not given
Target sequence in this assay (P49862 30-253): as above

[3] = biological target: T1, human Kallikrein-related peptidase 7 …; experiment: enzyme inhibition; ketone linker; settings: modification not given
Target sequence in this assay (P49862 30-253): as above

[4] = biological target: T1, human Kallikrein-related peptidase 7 …; experiment: substrate-based activity assay
Target sequence in this assay (P49862 30-253 limits assumed): as the sequence (P49862 30-253) above

[5] = biological target: human serum albumin (HSA) (human), P02768; experiment: fluorescence polarization
[6] = biological target: T1, human Kallikrein-related peptidase 7 …; experiment: enzyme inhibition; 2,6-bis(bromomethyl)pyridine linker; settings: modification not given
Target sequence in this assay (P49862 30-253): as above

[7] = biological target: human Kallikrein-related peptidase 5 (hKLK5) (human), Q9Y337; experiment: as above; settings: modification not given
Sequence of human Kallikrein-related peptidase 5 (hKLK5) (human), Q9Y337 (Q9Y337 67-293): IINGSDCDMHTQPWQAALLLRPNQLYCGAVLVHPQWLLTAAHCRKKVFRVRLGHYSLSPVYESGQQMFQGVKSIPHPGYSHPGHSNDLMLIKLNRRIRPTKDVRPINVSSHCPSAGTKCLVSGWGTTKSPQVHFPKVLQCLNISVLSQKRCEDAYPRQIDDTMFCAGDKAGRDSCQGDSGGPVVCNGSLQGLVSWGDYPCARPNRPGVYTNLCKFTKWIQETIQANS

## FCLWPWCQPPEACPSQCE [012]
[1]
  Ki: > 1000 nM

## PCLYLAC [109]
[2]
  Ki: 19 nM

## PCLYMARCS [111]
[3]
  Ki: 10 nM

B1: KLK7 inhibitor 278-tag (final KLK7 inhibitor) (peptide)
peptide 1: PCLY[Nle]A[hArg]CGKG
peptide 2: EYEK(Palmitoyl)EYE
modifications: bridge I:2-I:8; not fully specified (some residues, N-terminus, bridges); also: chain 2 (albumin tag) attached via PEG2 to Lys10 side chain of chain 1 (branched)
[4]
  Ki: 7.4 nM
[5]
  Kd: 164 nM

## PCLYRSCS [086]
[2]
  Ki: 53 nM

## PCLYLACS [087]
[2]
  Ki: 17.5 nM

## RCDSSQCMQGQCLYRSCP [007]
[6]
  Ki: 94 nM

## QCLYLSCS [081]
[2]
  Ki: 12 nM

## PCLYLSRCS [095]
[3]
  Ki: 90 nM

## PCLYLSCS [080]
[2]
  Ki: 29.4 nM

## PCLYLSCP [089]
[2]
  Ki: 50 nM

## RCLYLSCS [082]
[2]
  Ki: 8.8 nM

## PCLYLAQCS [112]
[3]
  Ki: 36 nM

## HCRKGLDRCPQCLYRTCS [008]
[6]
  Ki: 66 nM

## ACTREYNPQCANPQCLCH [003]
[7]
  Ki: 6 nM

## PCLYLTCS [088]
[2]
  Ki: 52 nM

## QCLYIACPSAAKCDNGCQ [009]
[6]
  Ki: 32 nM
